According to the DeepSol protein solubility set:

Assay: soluble on expression in E. coli; label from the status in PepcDB or PDB records

With “MPMTGRCREPNCHAVVVRPLHYCTKHADKEAAYQASRERWTNRTSNSKRYKDYDRMRSKDPFKAEQHKFYQGKQWRSIREIALRRDNYLCQYCLNHKRVRTGNIGDHIVPYEVEPENRTNLANIAIACSKCHTAKTKWEQLYYGTGMGNKLKNAIPIRNVKDLPDFQKNIRLEHHHHHH” the “soluble on expression in E. coli” value was “not soluble”.

With “MCIKGCKRRIHPTRLLMLIRTEAPADILVVDQLLKNVFATEAEADLVMALRENGQRTLSLVACDDEGEIVGHVMFSPVTLEGEDLNWQGLAPLAVKEEYRRQGIGAELVKEGLSSLGELGYPACVVLGDPAYYSRFGFEDAARYSLRCAWDVPQGAFQVVALWERELDGRCGVIEYSQEFAAL” the “soluble on expression in E. coli” value was “not soluble”.

With “MPLVNSHIVEECLPFTSLRLDPEDINLSMGAGYVPDAEIQAISDALETEIAGICTPRFLYALFDAEPAGTCEVGVNGISLKTGSVITPYLKDAAGYVLFVATAGYEFEAFQHRIGSQGDILREFLLDAYGSAIAEAVVREVCRKVESRMFPLGYGVSHPYSPGYCGWHVTQQQLLFSCLPEFPCGVRLSDSSLMSPIKSVSGIIAYGPCIVKRKYGCELCGKADCYKNRNKLNRLEHHHHHH” the “soluble on expression in E. coli” value was “soluble”.

With “MVNLQEYQSKKLMSDNGVKVQRFFVADTANEALEAAKRLNAKEIVLKAQILAGGRGKGVFSSGLKGGVHLTKDPEVVGQLAKQMIGYNLATKQTPKEGVKVNKVMVAEALDISRETYLAILMDRSCNGPVLVGSPQGGVDIEEVAASNPELIFKEQIDIIEGIKDSQAQRMAENLGFLGPLQNQAADQIKKLYNLFLKIDATQVEVNPFGETPEGQVVCFDAKINFDDNAEFRQKDIFAMDDKSENEPIENEAAKYDLKYIGLDGNIACFVNGAGLAMATCDIIFLNGGKPANFLDLGGGVKESQVYQAFKLLTADPKVEAILVNIFGGIVNCAIIANGITKACRELELKVPLVVRLEGTNVHEAQNILTNSGLPITSAVDLEDAAKKAVASVTKK” the “soluble on expression in E. coli” value was “soluble”.

With “FNSSINNIHEMEIQLKDALEKNQQWLVYDQQREVYVKGLLAKIFELEKKTETAAHSLP” the “soluble on expression in E. coli” value was “soluble”.

For “VLHQPPAMSSALGTTIRLTCTLRNDHDIGVYSVYWYQQRPGHPPRFLLRYFSQSDKSQGPQVPPRFSGSKDVARNRGYLSISELQPEDEAMYYCAMGARSTHVFGSGTQLTVLSAA”, the “soluble on expression in E. coli” value was “soluble”.

For “MHEITLCQRALELIEQQAAKHGAKRVTGVWLKIGAFSCVETSSLAFCFDLVCRGSVAEGCKLHLEEQEAECWCETCQQYVTLLTQRVRRCPQCHGDMLQIVADDGLQIRRIEIDQE”, the “soluble on expression in E. coli” value was “soluble”.

With “MVQEIIVDSGDIEFLTTPKEYKQQLLSLIECARQRIFITALYLQDDEAGREILHALYQAKANFPTIEINIFVDFNRGQRGLIGEKASLGNRALYLKLAHEYPHTVNIYGVAVKRKEVFGVLHLKGMVFDEKLFYTGASINDIYLHQGERYRLDRYCTINSAALADSFCHYLSDTFIDSGLAPLLNQEWLPDAVEQKKNLIALKLQLKKSHYIVAQQQGLSQSKIVSNKALITPLVGFGRRKNQLNRATRHLVQKADDNMVLFTPYFNLPHSLAKDVIRALKRGVKTTVVVGDKTANDFFIGNDEDFSTIGIIPYVYEMLLKRFVKRYQNFIDQGLLNIHLWKDKDNSFHLKGLRVDDRYHLITGSNLNPRAWALDLENGLVVDDVNKQLLQKTDEELLGILVNTSKVSHFSDIDSVEDYPEKPQKLLKKIRVAQIDRVLKRFLLEHHHHHH” the “soluble on expression in E. coli” value was “soluble”.

In the case of “MHHHHHHSSGVDLGTENLYFQSNAMKNIEKLEQSLTYEFKDKNLLIHALTHKSFKKSYNNERLEFLGDAVLDLVVGEYLFHKFAKDAEGDLSKLRAALVNEKSFAKIANSLNLGDFILMSVAEENNGGKEKPSILSDALEAIIGAIHLEAGFEFAKTIALRLIEKNFPQIDAKILIKDYKTKLQEITQGKIGQTPQYETVRAFGPDHLKQFEIALMLDGKELARAIAGSKKEAQQMAAKIALEKLGAL”, the “soluble on expression in E. coli” value was “soluble”.

For “MGSDKIHHHHHHMGTIWPDSLPQSKGAKYTLVADVIRKAIDTKELEVGVKLPPVRELAYKLGITPGTVARAYTILTDEGLLNAEVGRGTFVAPPKRPVLDDVWSRQLYLLDERDDDNVSLFSPRLADMGQVALIRECLQKVAQGDPAMFLNYPTRDAYAGVRQAVVDWMSDLSLGPLTADDIVLTHGGQSGLCVVFQTVFKGPKPVVLVEDLSYAGFRRAAELMRADVIGVRMDKWGIDPMSLDLTARQSPAQAICVSPEVQNPTGSRSPLERRKEVVEVARKHDLQIIEDDCYRMGEPQAPSYRALAPERGWHVSSVSKTLTPALRVGFAIAPEGQSAGLRRSAEYGYFGLAQPLAELTRLMLSDPRARDLARAVQRRMAEYVRVTVNTLGGFDLVWDSAVPFVWLRLPSGWRSAAFTRAAERAGVQVRSADEFALRDGRAPNAVRIAMNAHVSLERFETAMVRLRALLDNPPEQISV”, the “soluble on expression in E. coli” value was “not soluble”.

In the case of “MDLAAHIDHTLLKPTATLEEVAKAAEEALEYGFYGLCIPPSYVAWVRARYPHAPFRLVTVVGFPLGYQEKEVKALEAALACARGADEVDMVLHLGRAKAGDLDYLEAEVRAVREAVPQAVLKVILETGYFSPEEIARLAEAAIRGGADFLKTSTGFGPRGASLEDVALLVRVAQGRAQVKAAGGIRDRETALRMLKAGASRLGTSSGVALVAGEGGTLGY”, the “soluble on expression in E. coli” value was “soluble”.

In the case of “MTFFFVFLALLSLLAFVIRKAHRNTYEAVLHKVQVGRSEDGDGAIRILQLSDLHLEKLSITPDDLYEKLKEEEIDLIALTGDFLDREESIAKLGPYLAALNALKPTYGMYAVFGNHDYVLQGEPFARLKATLEAHGCVVLQNETKTITVNGQTVNIIGIDDFYTGRSDIEKAYAGVKDGISLVLTHDPDIVPHMKDYHFDYLLSGHFHGGQIHWPKPYHLAKMSKTLTERNMIKGYHEWEGKPFYINEGLGQTGVNIRIGSKPEVTLHLLALPSRREAVKAV”, the “soluble on expression in E. coli” value was “not soluble”.

With “MAHHHHHHMWRCGMMPRTRVLRFVWKQSYRDLLPPAAASAYVCGQLRWCDSCDGGGVPAVLESPSDAAGVYSFFSQSTASAVRALRDVTRSAHSLSITDRRLALDGLAVLLRENADLLASADALVTGMCLRDARRSLDAALNFILFCEQRLRTPTAAATTAVIMKDAASVDAEEVLHSFGCGGANICGDSHSVSTLTGKSSVALCVTAANYPLQWGMETVATALLRGSAAVWLPSLDTPLSALWLMHLLHRSNKNVVADSRGAVNIILCRADDVVAAFSRQQESGLSIVGLKNGFRDHQLSRNHQAHGIPSAISHGSISCITRWYHRVMKPSLAVVGSGHHHTETMAVRLDASRVAALICQHAFHGNGRMLYALHIAFVPKQDVLPVLQSVVQYVRNLRLGHSLDPSVNMGPLPGAAHMAAMKETVEAAVCCGDFKLQHVCGGFDVAMPAGFFCLPCAFYATVANVTPAGTEMSIRVLCETTARLRFGLDRLGGGPFVVVCGYDPPQQREALEVVLREKEQYVLHYW” the “soluble on expression in E. coli” value was “not soluble”.

With “MFENESLSFEEQTIIQAAERYVQQELANEASGHDWWHIYRVTQLAKTIAEKEQANLFLCILTALLHDIGDEKFNESEEAGLLKVQQWLEANNVSTEQTNHILSIIANMSFKGGNTGKTVTTLEGKVVQDADRLDAIGAIGIARVMAYSGNKGRLIHDPHKQPREQLTQEEYRNGEDTAIMHFYEKLLKLKEQMNTNYGRLLAEKRHQFMELYLEEFYQEWDGHRLEHHHHHH” the “soluble on expression in E. coli” value was “soluble”.

In the case of “MSRGYYRTEEEIVQDKVLHRDPGIIEENYASKPPSRRSSSNTNPDSLVNQKHAQPLPSPLHSPVKSVTGSSKNQSPKMAPVRSNSRGSSASSEEDIGTRSFSISVLKDSGTKVEIMLKAHGLRKKKGFINSLVTVFKKPSQPSRLLSNGKFTEFVLTEHALRFLLEVKTDKKKKKGNGNRLDTFLCEVKRFPSDVNPDSAEFEVLEPASGEAFILLTLIKTGNLSTNWKEFLDTHGTLDVSTI”, the “soluble on expression in E. coli” value was “soluble”.

For “MSQSYHRPRPAGMAGAILDKQASKFNDVEAGYLLEWIRDLTKEDFDCEASRDNFREQLKDGQRLCKLVNAIKAGSVKKIMKPISNFNCLENINQFSTAARSLGVKDEETFQSVDLFDGRDLFSVTVTLQSLARKVEKLGITPPKQVSKDQIVNQ”, the “soluble on expression in E. coli” value was “not soluble”.

For “MLNNPVGWFEIYVNDMERAKTFYETVLKVSLEEMPNPTSMPIKMLTFPSNMEKYGASGALVKMEGICAGGGGTLIYFSSDDCAVEQERIVAAGGQIHTPKMSIGEYGFITLAVDTEGNLFGLHSMQ”, the “soluble on expression in E. coli” value was “not soluble”.

In the case of “MGSDKIHHHHHHMKSIPSLDDLDLFARIAQAGGLAVVARQSGVSVPTLSRRMRALELQIGVHLFERGSHGYRVTALGRAFLSETRAFQAEAQRLRRMVATPLMAEVRITAGSWTSAFLAQQLPRFWQEDAQWRPAFLEADTRLDIARRGADIGIRNQRPEQAWLAGRYTGLITYAVYAISDQVRGYVVLPENQAKTPSARWVWSHHGGEVAATARSPRMVADLACAGVGQVVLPRFAAAMFPALQQVGPEIAELSHEEWLVCHHDGRHDPPVRAALEGIAAVLTDTTLRPIGA”, the “soluble on expression in E. coli” value was “not soluble”.

For “MVKVIFFDLDDTLVDTSKLAEIARKNAIENMIRHGLPVDFETAYSELIELIKEYGSNFPYHFDYLLRRLDLPYNPKWISAGVIAYHNTKFAYLREVPGARKVLIRLKELGYELGIITDGNPVKQWEKILRLELDDFFEHVIISDFEGVKKPHPKIFKKALKAFNVKPEEALMVGDRLYSDIYGAKRVGMKTVWFRYGKHSERELEYRKYADYEIDNLESLLEVLARESSSNKKVHPPRQQI”, the “soluble on expression in E. coli” value was “soluble”.

For “MGSDKIHHHHHHMKSRKFPIRFENFSLSVDGKSVLENITLSFVEGMNVLYGPRGSGKSSLLRSIVKLNTEIFNEISRSGSVYLFDQNVEDLDDIYVRKNALYLDTSFIDAMNQYTFDEFLKLALKRKISLENFSEKLDDLGILRMLIRGQKTPLSVFSPAEKISLLLFILEQKKPRVILMDCLLDHLDDENLEKIMDMFLKMKEERTFVISTRILQRFLYIADLLVILNNGRINYTGSPKDFVLRM”, the “soluble on expression in E. coli” value was “not soluble”.

With “MAHHHHHHMKKACKLASECLKLCLENSKEGITTDIIDNMAYDFYIKNNAYPAGLNFHSFPKSICASPNEVVCHGIPNLRKLQRGDIITYDCTVFLDGVFGDCAGTVGIGEISERHKKLMDVSKECLYKAISICRDGQLFSEIGRIITEHANKNGFNVIKDFCGHFIGTHMHMYPLIEHHYPNSHNNHRMKKGQIFTIEPILSEGSINIYTWKDKWTVCTNDNSFCSQWEHTILVLDNYAEILT” the “soluble on expression in E. coli” value was “not soluble”.

In the case of “MSLRIADKTVTRAILERHGFTFKKSFGQNFLTDTNILQKIVDTAEIDKGVNVIEIGPGIGALTEFLAENAAEVMAFEIDDRLIPILADTLARFDNVQVVNQDILKADLQTQIQAFKNPDLPIKVVANLPYYITTPILMHLIESKIPFAEFVVMIQKEVADRISAMPNTKAYGSLSIAVQYYMTAKVSFIVPRTVFVPAPNVDSAILKMVRRDQPVVSVQDEDFFFRVSKVAFVHRRKTLWNNLTSHFGKSEDTKAKLEKALEIAKIKPSIRGEALSIPDFASLADALKEVGIEGHHHHHH”, the “soluble on expression in E. coli” value was “soluble”.

With “SLDPSKVTSMSAVEFTPLPTCLQHRSCDACMSSDLTFNCSWCHVLQRCSSGFDRYRQEWMDYGCAQEAEGRMCEDFQD” the “soluble on expression in E. coli” value was “soluble”.

For “MDKQSLHETAKRLALELPFVELCWPFGPEFDVFKIGGKIFMLSSELRGVPFINLKSDPQKSLLNQQIYPSIKPGYHMNKKHWISVYSGEEISEALLRDLINDSWNLVVDGLAKRDQKRVRPG”, the “soluble on expression in E. coli” value was “not soluble”.
